Laboratory results taken from publication PMC8679783 (2021).

Target: RDO24_mFab2 (mouse, UniProt P01863 = IgG part)
Test: SPR

koff: 0.000335 s⁻¹
B1: recombinant human MET ECD-Fc (Recombinant Human HGFR/c-MET Fc Chimera His-tag Protein) (Fc fusion)
chain: ECKEALAKSEMNVNMKYQLPNFTAETPIQNVILHEHHIFLGATNYIYVLNEEDLQKVAEYKTGPVLEHPDCFPCQDCSSKANLSGGVWKDNINMALVVDTYYDDQLISCGSVNRGTCQRHVFPHNHTADIQSEVHCIFSPQIEEPSQCPDCVVSALGAKVLSSVKDRFINFFVGNTINSSYFPDHPLHSISVRRLKETKDGFMFLTDQSYIDVLPEFRDSYPIKYVHAFESNNFIYFLTVQRETLDAQTFHTRIIRFCSINSGLHSYMEMPLECILTEKRKKRSTKKEVFNILQAAYVSKPGAQLARQIGASLNDDILFGVFAQSKPDSAEPMDRSAMCAFPIKYVNDFFNKIVNKNNVRCLQHFYGPNHEHCFNRTLLRNSSGCEARRDEYRTEFTTALQRVDLFMGQFSEVLLTSISTFIKGDLTIANLGTSEGRFMQVVVSRSGPSTPHVNFLLDSHPVSPEVIVEHTLNQNGYTLVITGKKITKIPLNGLGCRHFQSCSQCLSAPPFVQCGWCHDKCVRSEECLSGTWTQQICLPAIYKVFPNSAPLEGGTRLTICGWDFGFRRNNKFDLKKTRVLLGNESCTLTLSESTMNTLKCTVGPAMNKHFNMSIIISNGHGTTQYSTFSYVDPVITSISPKYGPMAGGTLLTLTGNYLNSGNSRHISIGGKTCTLKSVSNSILECYTPAQTISTEFAVKLKIDLANRETSIFSYREDPIVYEIHPTKSFISGGSTITGVGKNLNSVSVPRMVINVHEAGRNFTVACQHRSNSEIICCTTPSLQQLNLQLPLKTKAFFMLDGILSKYFDLIYVHNPVFKPFEKPVMISMGNENVLEIKGNDIDPEAVKGEVLKVGNKSCENIHLHSEAVLCTVPNDLLKLNSELNIEWKQAISSTVLGKVIVQPDQNFT
